According to patent publication US20260078416A1, “ORTHOGONAL METABOLIC FRAMEWORK FOR ONE-CARBON UTILIZATION” (Mojia Biotech Pte. Ltd., priority 2021, published 2026):

Key:
[1] = In vitro kinetic assay of purified HACS variants; substrate acetone; format: biochemical
Protocol: The kinetic assay was performed with a coupled reaction providing formyl-CoA from formate catalyzed by CoA transferase CaAbfT using acetyl-CoA as a CoA donor.
In vitro kinetic assay was comprised of 100 mM KPi pH 6.9, 10 mM MgCl2, 0.15 mM TPP, 2 mM acetyl-CoA, 1 μM CaAbfT, 0.25 μM HACS variants, and 20 mM sodium formate. Reactions were incubated at room temperature for 3 min to convert formate to formyl-CoA, and then specific concentration of aldehyde (specifically acetaldehyde or propionaldehyde here) was added to the reaction. After incubating another 3 min, 1/20 of the reaction volume of 10 M NaOH solution was added to terminate the reactions. After 30 min hydrolysis, 1/20 of the reaction volume of 10 N H2SO4 was added to neutralize the pH. Samples were centrifuged at 20817×g for 15 minutes and the supernatant analyzed by GC-MS as described below.
For this analysis, 0.15 of the reaction volume of internal standard methyl succinate was added to the samples. The resulting sample was extracted into 4 mL ethyl acetate by vigorous vortexing for 20 min. […] Samples were analyzed by GC (1 μL injection with a 20:1 split ratio) using helium as the carrier gas at a flowrate of 1.5 mL/min and the following temperature profile: initial 90° C. for 3 min; ramp at 15° C./min to 170° C.; ramp at 20° C./min to 300° C. and hold for 8 min. […]

[2] = In vitro condensation of methyl ketones with formyl-CoA using purified enzymes; format: biochemical; details: 100 mM methyl ketone, 20 mM formate, 30° C., 24 hours, GC-MS
Protocol: The formyl-CoA generation catalyzed by CoA transferase CaAbfT and condensation catalyzed by HACS JGI15 is identical to the examples described above (FIG. 38A).
The enzymes CoA transferase CaAbfT and HACS JG115 were overexpressed and purified as described above. In vitro purified enzyme reactions for condensation of methyl ketone and formyl-CoA were comprised of 100 mM KPi pH 6.9, 10 mM MgCl2, 0.15 mM TPP, 2 mM acetyl-CoA, 1 μM JGI15, 2 μM CaAbfT, 20 mM formate and 100 mM tested methyl ketones. Reactions were incubated at 30° C. for 24 hours unless otherwise specified.
For this analysis, samples containing acyl-CoAs were first treated with 1/20 of the reaction volume of 10 M NaOH solution was added to terminate the reactions. After 30 min hydrolysis, 1/20 of the reaction volume of 10 N H2SO4 was added to improve the efficiency of acid extraction. The resulting sample was extracted into 4 mL ethyl acetate by vigorous vortexing for 90 seconds. The organic phase was separated and evaporated to dryness under a stream of nitrogen. […] Samples were analyzed by GC (1 μL injection with a 20:1 split ratio) using helium as the carrier gas at a flowrate of 1.5 mL/min and the following temperature profile: initial 90° C. for 3 min; ramp at 15° C./min to 170° C.; ramp at 20° C./min to 300° C. and hold for 8 min. […]

B1: JGI15: HACS variant; GenBank HAK63664.1 (protein)
chain: MAKSEGKVNGATLMARALQQQGVQYMFGIVGFPVIPIAIAAQREGITYIGMRNEQSASYAAQAASYLTGRPQACLVVSGPGVVHALAGLANAQVNCWPMLLIGGASAIEQNGMGAFQEERQVLLASPLCKYAHQVERPERIPYYVEQAVRSALFGRPGAAYLDMPDDVILGEVEEAAVRPAATVGEPPRSLAPQENIEAALDALQSAKRPLVIVGKGMAWSRAENEVRQFIERTRLPFLATPMGKGVMPDDHPLSVGGARSHALQEADLVFLLGARFNWILHFGLPPRYSKDVRVIQLDLSAEEIGNNRQAEVALVGDGKAIVGQLNQALSSRQWFYPAETPWREAIAAKIAGNQAAVAPMIADNTSPMNYYRVYRDIAARLPRNAIIVGEGANTMDIGRTQMPNFEPRSRLDAGSYGTMGIGLGFAVAAAAVHPGRPVIAVQGDSAFGFSGMEFETAARYGMPIKVIILNNGGIGMGSPAPRDGQPGMPHALSHDARYERIAEAFGGAGFYVTDSAELGPALDAAMAFKGPAIVNIKIAATADRKPQQFNWHG
For B1, the “Kcat, app” value [1] was 6.8 s⁻¹ and the “condensation of methyl ketones with formyl-CoA” value [2] was “could catalyze the condensation of tested ketones”.
